Laboratory results taken from patent US20090304754.

Columns and labels:
[1] = target: Flavobacterium meningosepticum prolyl endopeptidase, unmodified (UniProt P27028)
[2] = target: Flavobacterium meningosepticum prolyl endopeptidase conjugated with 20,000 Da PEG (UniProt P27028)
[3] = target: T1, 26mer peptide derived from gamma-gliadin
T1 chain: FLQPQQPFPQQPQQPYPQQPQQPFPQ

In the case of chymotrypsin, the “kcat/KM of chymotrypsin-catalyzed proteolysis of FM PEP (loss of PEP activity, Michaelis-Menten fit)” value [1] is reported as “The chymotrypsin proteolysis exhibited a kcat/KM of 5.0 for the unmodified PEP”.

For trypsin, the “kcat/KM of trypsin-catalyzed proteolysis of FM PEP (loss of PEP activity, Michaelis-Menten fit)” value [2] was “a kcat/KM of 3.4 was obtained for the PEGylated PEP” and the “kcat/KM of trypsin-catalyzed proteolysis of FM PEP (loss of PEP activity, Michaelis-Menten fit)” value [1] was “a kcat/KM of 11.7 M^-1 sec-1 was obtained for unmodified PEP”.

B1: Flavobacterium meningosepticum prolyl endopeptidase, unmodified (protein)
chain: QNSNVLKYPETKKVSHTDTYFGTQVSDPYRWLEDDRAEDTKAWVQQEVKFTQDYLAQIPFRDQLKKQLMDIWNYEKISAPFKKGKYTYFSKNDGLQAQSVLYRKDAAGKTEVFLDPNKFSEKGTTSLASVSFNKKGTLVAYSISEGGSDWNKIIILDAETKKQLDETLLDVKFSGISWLGDEGFFYSSYDKPKEGSVLSGMTDKHKVYFHKLGTKQSQDELIIGGDKFPRRYIGAYVTDDQRYLVVSAANATNGNELYIKDLKNKTDFIPIITGFDSNVNVADTDGDTLYLFTDKDAPNKRLVKTTIQNPKAETWKDVIAETSEPLEINTGGGYFFATYMKDAIDQVKQYDKNGKLVRAIKLPGSGNASGFGGEKTEKDLYYSFTNYITPPTIFKYNVTTGNSEVYQKPKVKFNPENYVSEQVFYTSSDGTKIPMMISYKKGLKKDGKNPTILYSYGGFNISLQPAFSVVNAIWMENGGIYAVPNIRGGGEYGKKWHDAGTKMQKKNVFNDFIAAGEYLQKNGYTSKEYMALSGRSNGGLLVGATMTMRPDLAKVAFPGVGVLDMLRYNKFTAGAGWAYDYGTAEDSKEMFEYLKSYSPVHNVKAGTCYPSTMVITSDHDDRVVPAHSFKFGSELQAKQSCKNPILIRIETNAGHGAGRSTEQVVAENADLLSFALYEMGIKSLK
For B1, the “time course of cleavage of the 26mer peptide, HPLC” value [3] was “PEGylated enzymes are able to cleave longer substrates at rates comparable to unmodified enzyme”.

B2: Flavobacterium meningosepticum prolyl endopeptidase conjugated with 5000 Da PEG (protein)
chain: B1 chain
With B2 the “time course of cleavage of the 26mer peptide, HPLC (disappearance of the intact 26mer peak)” value [3] was “both the 5 kDa and 20 kDa PEGylated FM PEPs were 8-12% faster in cleaving the peptide than the unmodified FM PEP”.

B3: Flavobacterium meningosepticum prolyl endopeptidase conjugated with 20,000 Da PEG (protein)
chain: B1 chain
With B3 the “time course of cleavage of the 26mer peptide, HPLC (disappearance of the intact 26mer peak)” value [3] was “both the 5 kDa and 20 kDa PEGylated FM PEPs were 8-12% faster in cleaving the peptide than the unmodified FM PEP”.
